Parameters in all cases: EC50 of β-arrestin-1 recruitment to the receptor (NanoBiT, HEK293T, agonist mode) (M (inferred, not given)) / EC50 of β-arrestin-1 recruitment to CCR3 (NanoBiT, HEK293T, agonist mode) (M (inferred, not given)) / EC50 of β-arrestin-1 recruitment to CCR5 (NanoBiT, HEK293T, agonist mode) (M (inferred, not given)): unit not given beside the values
Assay [1] concerns the target T1, WT CCR3 C-terminally fused to SmBiT (human) (UniProt P51677).
T1 sequence: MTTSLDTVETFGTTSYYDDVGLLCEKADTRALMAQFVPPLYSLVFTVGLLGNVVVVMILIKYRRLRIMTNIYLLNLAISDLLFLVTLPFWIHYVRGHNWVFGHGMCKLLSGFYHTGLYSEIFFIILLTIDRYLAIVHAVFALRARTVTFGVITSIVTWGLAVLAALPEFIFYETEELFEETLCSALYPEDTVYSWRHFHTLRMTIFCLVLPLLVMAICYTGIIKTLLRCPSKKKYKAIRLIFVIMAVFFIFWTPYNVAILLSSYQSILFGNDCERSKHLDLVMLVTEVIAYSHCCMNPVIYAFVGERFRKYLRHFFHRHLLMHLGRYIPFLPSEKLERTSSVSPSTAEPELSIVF

In assay [2] the target is WT CCR5 C-terminally fused to SmBiT (human) (UniProt P51681).
Assay [3] has as its target WT CXCR4 C-terminally fused to SmBiT (human) (UniProt P61073).
The target of assay [4] is T2, human CCR3 on Ready-to-Assay Chem-1 cells (human) (UniProt P51677).
T2 sequence: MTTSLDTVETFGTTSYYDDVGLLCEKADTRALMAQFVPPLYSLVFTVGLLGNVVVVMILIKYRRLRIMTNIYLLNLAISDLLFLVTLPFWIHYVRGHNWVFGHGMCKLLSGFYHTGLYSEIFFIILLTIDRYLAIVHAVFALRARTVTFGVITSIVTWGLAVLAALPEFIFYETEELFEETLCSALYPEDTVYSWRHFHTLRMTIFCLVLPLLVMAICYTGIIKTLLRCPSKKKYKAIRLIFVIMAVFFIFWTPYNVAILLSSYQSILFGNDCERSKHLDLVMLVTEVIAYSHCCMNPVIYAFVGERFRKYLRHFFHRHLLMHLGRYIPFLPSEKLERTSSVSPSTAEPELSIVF

The target of assay [5] is T3, human CCR10 on Ready-to-Assay Chem-1 cells (human) (UniProt P46092).
T3 sequence: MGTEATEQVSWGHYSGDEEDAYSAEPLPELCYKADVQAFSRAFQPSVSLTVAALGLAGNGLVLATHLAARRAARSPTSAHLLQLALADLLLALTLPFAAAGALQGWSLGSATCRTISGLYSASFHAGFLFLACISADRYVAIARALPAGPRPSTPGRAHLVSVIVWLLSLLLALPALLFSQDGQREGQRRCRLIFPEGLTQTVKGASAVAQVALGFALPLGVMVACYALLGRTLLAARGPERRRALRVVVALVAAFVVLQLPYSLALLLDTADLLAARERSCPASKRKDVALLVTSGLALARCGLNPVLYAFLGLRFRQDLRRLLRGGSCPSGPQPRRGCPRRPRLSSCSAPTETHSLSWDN

This note sets out measurements from PMC12435897.

The molecule vMIP-II R7I/K10T/L13F (ligand) yielded an EC50 of β-arrestin-1 recruitment to CCR3 (NanoBiT, HEK293T, agonist mode) (M (inferred, not given)) in assay [1] of 1.11e-09. In assay [2], this molecule displayed an EC50 of β-arrestin-1 recruitment to CCR5 (NanoBiT, HEK293T, agonist mode) (M (inferred, not given)) of 1.08e-07. Take “CXCL12 (from UniProt P48061 22-93) (ligand)”: in assay [3], the EC50 of β-arrestin-1 recruitment to the receptor (NanoBiT, HEK293T, agonist mode) is 1.41 nM. Regarding “CCL28 ∆1 (∆S) (ligand; in M (unit assumed))”, the EC50 of calcium flux in Chem-1 cells expressing the receptor (M (inferred, not given)) in assay [4] stood at 1.72e-07. On to CCL28 ∆3 (∆SEA) (ligand), for which the EC50 of calcium flux in Chem-1 cells expressing the receptor (row labelled WT CCR3 in the sheet, taken as CCR10) in assay [5] turned out to be 32 nM. Same read-out and setting: the result for CCL28 ∆4 (∆SEAI) (ligand) reads 390 nM.

Turning to “CCL28 ∆2 (∆SE) (ligand; in M (unit assumed))”, in assay [4], the EC50 of calcium flux in Chem-1 cells expressing the receptor (M (inferred, not given)) amounted to 5.46e-08. On to “CCL3 (from UniProt P10147 24-92) (ligand; in M (unit assumed))”, for which the EC50 of β-arrestin-1 recruitment to the receptor (NanoBiT, HEK293T, agonist mode) (M (inferred, not given)) in assay [2] amounted to 4.12e-08.

For vMIP-II K10T (ligand), in assay [1], the EC50 of β-arrestin-1 recruitment to CCR3 (NanoBiT, HEK293T, agonist mode) (M (inferred, not given)) was 5.84e-10.

In assay [1], vMIP-II L13F (ligand) gave an EC50 of β-arrestin-1 recruitment to CCR3 (NanoBiT, HEK293T, agonist mode) (M (inferred, not given)) of 5.34e-10. Turning to “CCL28 ∆4 (∆SEAI) (ligand; in M (unit assumed))”, in assay [4], the EC50 of calcium flux in Chem-1 cells expressing the receptor (M (inferred, not given)) was determined as 2.79e-08.

Turning to CCL28 ∆1 (∆S) (ligand), the EC50 of calcium flux in Chem-1 cells expressing the receptor (row labelled WT CCR3 in the sheet, taken as CCR10) in assay [5] turned out to be 170 nM.

On to “CCL4 (from UniProt P13236 24-92) (ligand; in M (unit assumed))”, for which, in assay [2], the EC50 of β-arrestin-1 recruitment to the receptor (NanoBiT, HEK293T, agonist mode) (M (inferred, not given)) stood at 1.45e-07. vMIP-II R7I (ligand) yielded an EC50 of β-arrestin-1 recruitment to CCR3 (NanoBiT, HEK293T, agonist mode) (M (inferred, not given)) in assay [1] of 3.79e-10.

In assay [2], “CCL5 (from UniProt P13501 24-91) (ligand)” came in with a β-arrestin-1 recruitment to the receptor (NanoBiT, HEK293T, agonist mode): mean peak activity, no single EC50 (fold untreated) of 16.5. On to “CCL28 ∆3 (∆SEA) (ligand; in M (unit assumed))”, for which the EC50 of calcium flux in Chem-1 cells expressing the receptor (M (inferred, not given)) in assay [4] was determined as 5.22e-08. Regarding CCL28 ∆2 (∆SE) (ligand), the EC50 of calcium flux in Chem-1 cells expressing the receptor (row labelled WT CCR3 in the sheet, taken as CCR10) in assay [5] came to 29 nM.

B1: viral macrophage inflammatory protein II (vMIP-II) (ligand)
chain: GDTLGASWHRPDKCCLGYQKRPLPQVLLSSWYPTSQLCSKPGVIFLTKRGRQVCADKSKDWVKKLMQQLPVTAR
In assay [1], B1 showed an EC50 of β-arrestin-1 recruitment to CCR3 (NanoBiT, HEK293T, agonist mode) (M (inferred, not given)) of 1.35e-09.

B2: WT CCL28 (ligand)
chain: SEAILPIASSCCTEVSHHISRRLLERVNMCRIQRADGDCDLAAVILHVKRRRICVSPHNHTVKQWMKVQAAKKNGKGNVCHRKKHHGKRNSNRAHQGKHETYGHKTPY
For the molecule B2, the EC50 of calcium flux in Chem-1 cells expressing the receptor (row labelled WT CCR3 in the sheet, taken as CCR10) in assay [5] amounted to 230 nM. Besides, in assay [4], the EC50 of calcium flux in Chem-1 cells expressing the receptor (M (inferred, not given)) was 1.42e-07.
